Assay results as given in PMC4912689, “The Extracellular Surface of the GLP-1 Receptor Is a Molecular Trigger for Biased Agonism” (Cell, 2016).

Target: exendin-4, P26349
Test: radioligand inhibition binding (competition with 125I-exendin-4(9-39))
Settings: chain shown with the change;; read off a plot

| Binder | log10 ratio |
| --- | --- |
| glucagon-like peptide 1 receptor (GLP-1R), wild-type, P43220 R299A (protein) RPQGATVSLWETVQKWREYRRQCQRSLTEDPPPATDLFCNRTFDEYACWPDGEPGSFVNVSCPWYLPWASSVPQGHVYRFCTAEGLWLQKDNSSLPWRDLSECEESKRGERSSPEEQLLFLYIIYTVGYALSFSALVIASAILLGFRHLHCTRNYIHLNLFASFILRALSVFIKDAALKWMYSTAAQQHQWDGLLSYQDSLSCRLVFLLMQYCVAANYYWLLVEGVYLYTLLAFSVLSEQWIFRLYVSIGWGVPLLFVVPWGIVKYLYEDEGCWTANSNMNYWLIIRLPILFAIGVNFLIFVRVICIVVSKLKANLMCKTDIKCRLAKSTLTLIPLLGTHEVIFAFVMDEHARGTLRFIKLFTELSFTSFQGLMVAILYCFVNNEVQLEFRKSWERWRLEHLHIQRDSSMKPLKCPTSSLSSGATAGSSMYTATCQASCS | -1.5 ΔpKi |
| glucagon-like peptide 1 receptor (GLP-1R), wild-type, P43220 F385A (protein) RPQGATVSLWETVQKWREYRRQCQRSLTEDPPPATDLFCNRTFDEYACWPDGEPGSFVNVSCPWYLPWASSVPQGHVYRFCTAEGLWLQKDNSSLPWRDLSECEESKRGERSSPEEQLLFLYIIYTVGYALSFSALVIASAILLGFRHLHCTRNYIHLNLFASFILRALSVFIKDAALKWMYSTAAQQHQWDGLLSYQDSLSCRLVFLLMQYCVAANYYWLLVEGVYLYTLLAFSVLSEQWIFRLYVSIGWGVPLLFVVPWGIVKYLYEDEGCWTRNSNMNYWLIIRLPILFAIGVNFLIFVRVICIVVSKLKANLMCKTDIKCRLAKSTLTLIPLLGTHEVIFAFVMDEHARGTLRFIKLATELSFTSFQGLMVAILYCFVNNEVQLEFRKSWERWRLEHLHIQRDSSMKPLKCPTSSLSSGATAGSSMYTATCQASCS | -0.2 ΔpKi |
| glucagon-like peptide 1 receptor (GLP-1R), wild-type, P43220 C296A (protein) RPQGATVSLWETVQKWREYRRQCQRSLTEDPPPATDLFCNRTFDEYACWPDGEPGSFVNVSCPWYLPWASSVPQGHVYRFCTAEGLWLQKDNSSLPWRDLSECEESKRGERSSPEEQLLFLYIIYTVGYALSFSALVIASAILLGFRHLHCTRNYIHLNLFASFILRALSVFIKDAALKWMYSTAAQQHQWDGLLSYQDSLSCRLVFLLMQYCVAANYYWLLVEGVYLYTLLAFSVLSEQWIFRLYVSIGWGVPLLFVVPWGIVKYLYEDEGAWTRNSNMNYWLIIRLPILFAIGVNFLIFVRVICIVVSKLKANLMCKTDIKCRLAKSTLTLIPLLGTHEVIFAFVMDEHARGTLRFIKLFTELSFTSFQGLMVAILYCFVNNEVQLEFRKSWERWRLEHLHIQRDSSMKPLKCPTSSLSSGATAGSSMYTATCQASCS | -1.8 ΔpKi |
| glucagon-like peptide 1 receptor (GLP-1R), wild-type, P43220 T378A (protein) RPQGATVSLWETVQKWREYRRQCQRSLTEDPPPATDLFCNRTFDEYACWPDGEPGSFVNVSCPWYLPWASSVPQGHVYRFCTAEGLWLQKDNSSLPWRDLSECEESKRGERSSPEEQLLFLYIIYTVGYALSFSALVIASAILLGFRHLHCTRNYIHLNLFASFILRALSVFIKDAALKWMYSTAAQQHQWDGLLSYQDSLSCRLVFLLMQYCVAANYYWLLVEGVYLYTLLAFSVLSEQWIFRLYVSIGWGVPLLFVVPWGIVKYLYEDEGCWTRNSNMNYWLIIRLPILFAIGVNFLIFVRVICIVVSKLKANLMCKTDIKCRLAKSTLTLIPLLGTHEVIFAFVMDEHARGALRFIKLFTELSFTSFQGLMVAILYCFVNNEVQLEFRKSWERWRLEHLHIQRDSSMKPLKCPTSSLSSGATAGSSMYTATCQASCS | -0.5 ΔpKi |
| glucagon-like peptide 1 receptor (GLP-1R), wild-type, P43220 N300A (protein) RPQGATVSLWETVQKWREYRRQCQRSLTEDPPPATDLFCNRTFDEYACWPDGEPGSFVNVSCPWYLPWASSVPQGHVYRFCTAEGLWLQKDNSSLPWRDLSECEESKRGERSSPEEQLLFLYIIYTVGYALSFSALVIASAILLGFRHLHCTRNYIHLNLFASFILRALSVFIKDAALKWMYSTAAQQHQWDGLLSYQDSLSCRLVFLLMQYCVAANYYWLLVEGVYLYTLLAFSVLSEQWIFRLYVSIGWGVPLLFVVPWGIVKYLYEDEGCWTRASNMNYWLIIRLPILFAIGVNFLIFVRVICIVVSKLKANLMCKTDIKCRLAKSTLTLIPLLGTHEVIFAFVMDEHARGTLRFIKLFTELSFTSFQGLMVAILYCFVNNEVQLEFRKSWERWRLEHLHIQRDSSMKPLKCPTSSLSSGATAGSSMYTATCQASCS | -1.8 ΔpKi |
| glucagon-like peptide 1 receptor (GLP-1R), wild-type, P43220 D222A (protein) RPQGATVSLWETVQKWREYRRQCQRSLTEDPPPATDLFCNRTFDEYACWPDGEPGSFVNVSCPWYLPWASSVPQGHVYRFCTAEGLWLQKDNSSLPWRDLSECEESKRGERSSPEEQLLFLYIIYTVGYALSFSALVIASAILLGFRHLHCTRNYIHLNLFASFILRALSVFIKDAALKWMYSTAAQQHQWDGLLSYQASLSCRLVFLLMQYCVAANYYWLLVEGVYLYTLLAFSVLSEQWIFRLYVSIGWGVPLLFVVPWGIVKYLYEDEGCWTRNSNMNYWLIIRLPILFAIGVNFLIFVRVICIVVSKLKANLMCKTDIKCRLAKSTLTLIPLLGTHEVIFAFVMDEHARGTLRFIKLFTELSFTSFQGLMVAILYCFVNNEVQLEFRKSWERWRLEHLHIQRDSSMKPLKCPTSSLSSGATAGSSMYTATCQASCS | -0.25 ΔpKi |
| glucagon-like peptide 1 receptor (GLP-1R), wild-type, P43220 L217A (protein) RPQGATVSLWETVQKWREYRRQCQRSLTEDPPPATDLFCNRTFDEYACWPDGEPGSFVNVSCPWYLPWASSVPQGHVYRFCTAEGLWLQKDNSSLPWRDLSECEESKRGERSSPEEQLLFLYIIYTVGYALSFSALVIASAILLGFRHLHCTRNYIHLNLFASFILRALSVFIKDAALKWMYSTAAQQHQWDGALSYQDSLSCRLVFLLMQYCVAANYYWLLVEGVYLYTLLAFSVLSEQWIFRLYVSIGWGVPLLFVVPWGIVKYLYEDEGCWTRNSNMNYWLIIRLPILFAIGVNFLIFVRVICIVVSKLKANLMCKTDIKCRLAKSTLTLIPLLGTHEVIFAFVMDEHARGTLRFIKLFTELSFTSFQGLMVAILYCFVNNEVQLEFRKSWERWRLEHLHIQRDSSMKPLKCPTSSLSSGATAGSSMYTATCQASCS | -0.3 ΔpKi |
| glucagon-like peptide 1 receptor (GLP-1R), wild-type, P43220 L201A (protein) RPQGATVSLWETVQKWREYRRQCQRSLTEDPPPATDLFCNRTFDEYACWPDGEPGSFVNVSCPWYLPWASSVPQGHVYRFCTAEGLWLQKDNSSLPWRDLSECEESKRGERSSPEEQLLFLYIIYTVGYALSFSALVIASAILLGFRHLHCTRNYIHLNLFASFILRALSVFIKDAAAKWMYSTAAQQHQWDGLLSYQDSLSCRLVFLLMQYCVAANYYWLLVEGVYLYTLLAFSVLSEQWIFRLYVSIGWGVPLLFVVPWGIVKYLYEDEGCWTRNSNMNYWLIIRLPILFAIGVNFLIFVRVICIVVSKLKANLMCKTDIKCRLAKSTLTLIPLLGTHEVIFAFVMDEHARGTLRFIKLFTELSFTSFQGLMVAILYCFVNNEVQLEFRKSWERWRLEHLHIQRDSSMKPLKCPTSSLSSGATAGSSMYTATCQASCS | -0.3 ΔpKi |
| glucagon-like peptide 1 receptor (GLP-1R), wild-type, P43220 R376A (protein) RPQGATVSLWETVQKWREYRRQCQRSLTEDPPPATDLFCNRTFDEYACWPDGEPGSFVNVSCPWYLPWASSVPQGHVYRFCTAEGLWLQKDNSSLPWRDLSECEESKRGERSSPEEQLLFLYIIYTVGYALSFSALVIASAILLGFRHLHCTRNYIHLNLFASFILRALSVFIKDAALKWMYSTAAQQHQWDGLLSYQDSLSCRLVFLLMQYCVAANYYWLLVEGVYLYTLLAFSVLSEQWIFRLYVSIGWGVPLLFVVPWGIVKYLYEDEGCWTRNSNMNYWLIIRLPILFAIGVNFLIFVRVICIVVSKLKANLMCKTDIKCRLAKSTLTLIPLLGTHEVIFAFVMDEHAAGTLRFIKLFTELSFTSFQGLMVAILYCFVNNEVQLEFRKSWERWRLEHLHIQRDSSMKPLKCPTSSLSSGATAGSSMYTATCQASCS | -0.35 ΔpKi |
| glucagon-like peptide 1 receptor (GLP-1R), wild-type, P43220 W214A (protein) RPQGATVSLWETVQKWREYRRQCQRSLTEDPPPATDLFCNRTFDEYACWPDGEPGSFVNVSCPWYLPWASSVPQGHVYRFCTAEGLWLQKDNSSLPWRDLSECEESKRGERSSPEEQLLFLYIIYTVGYALSFSALVIASAILLGFRHLHCTRNYIHLNLFASFILRALSVFIKDAALKWMYSTAAQQHQADGLLSYQDSLSCRLVFLLMQYCVAANYYWLLVEGVYLYTLLAFSVLSEQWIFRLYVSIGWGVPLLFVVPWGIVKYLYEDEGCWTRNSNMNYWLIIRLPILFAIGVNFLIFVRVICIVVSKLKANLMCKTDIKCRLAKSTLTLIPLLGTHEVIFAFVMDEHARGTLRFIKLFTELSFTSFQGLMVAILYCFVNNEVQLEFRKSWERWRLEHLHIQRDSSMKPLKCPTSSLSSGATAGSSMYTATCQASCS | -0.25 ΔpKi |
| glucagon-like peptide 1 receptor (GLP-1R), wild-type, P43220 E292A (protein) RPQGATVSLWETVQKWREYRRQCQRSLTEDPPPATDLFCNRTFDEYACWPDGEPGSFVNVSCPWYLPWASSVPQGHVYRFCTAEGLWLQKDNSSLPWRDLSECEESKRGERSSPEEQLLFLYIIYTVGYALSFSALVIASAILLGFRHLHCTRNYIHLNLFASFILRALSVFIKDAALKWMYSTAAQQHQWDGLLSYQDSLSCRLVFLLMQYCVAANYYWLLVEGVYLYTLLAFSVLSEQWIFRLYVSIGWGVPLLFVVPWGIVKYLYADEGCWTRNSNMNYWLIIRLPILFAIGVNFLIFVRVICIVVSKLKANLMCKTDIKCRLAKSTLTLIPLLGTHEVIFAFVMDEHARGTLRFIKLFTELSFTSFQGLMVAILYCFVNNEVQLEFRKSWERWRLEHLHIQRDSSMKPLKCPTSSLSSGATAGSSMYTATCQASCS | -1.8 ΔpKi |
| glucagon-like peptide 1 receptor (GLP-1R), wild-type, P43220 E387A (protein) RPQGATVSLWETVQKWREYRRQCQRSLTEDPPPATDLFCNRTFDEYACWPDGEPGSFVNVSCPWYLPWASSVPQGHVYRFCTAEGLWLQKDNSSLPWRDLSECEESKRGERSSPEEQLLFLYIIYTVGYALSFSALVIASAILLGFRHLHCTRNYIHLNLFASFILRALSVFIKDAALKWMYSTAAQQHQWDGLLSYQDSLSCRLVFLLMQYCVAANYYWLLVEGVYLYTLLAFSVLSEQWIFRLYVSIGWGVPLLFVVPWGIVKYLYEDEGCWTRNSNMNYWLIIRLPILFAIGVNFLIFVRVICIVVSKLKANLMCKTDIKCRLAKSTLTLIPLLGTHEVIFAFVMDEHARGTLRFIKLFTALSFTSFQGLMVAILYCFVNNEVQLEFRKSWERWRLEHLHIQRDSSMKPLKCPTSSLSSGATAGSSMYTATCQASCS | -0.4 ΔpKi |
| glucagon-like peptide 1 receptor (GLP-1R), wild-type, P43220 S301A (protein) RPQGATVSLWETVQKWREYRRQCQRSLTEDPPPATDLFCNRTFDEYACWPDGEPGSFVNVSCPWYLPWASSVPQGHVYRFCTAEGLWLQKDNSSLPWRDLSECEESKRGERSSPEEQLLFLYIIYTVGYALSFSALVIASAILLGFRHLHCTRNYIHLNLFASFILRALSVFIKDAALKWMYSTAAQQHQWDGLLSYQDSLSCRLVFLLMQYCVAANYYWLLVEGVYLYTLLAFSVLSEQWIFRLYVSIGWGVPLLFVVPWGIVKYLYEDEGCWTRNANMNYWLIIRLPILFAIGVNFLIFVRVICIVVSKLKANLMCKTDIKCRLAKSTLTLIPLLGTHEVIFAFVMDEHARGTLRFIKLFTELSFTSFQGLMVAILYCFVNNEVQLEFRKSWERWRLEHLHIQRDSSMKPLKCPTSSLSSGATAGSSMYTATCQASCS | -0.3 ΔpKi |
